B1: factor inhibiting HIF-1 (FIH-1), full-length [human] / Mint3NT, N-terminal fragment (1–214) of Mint3 [human] (parent)
chain 1: MDFPTISRSPSGPPAMDLEGPRDILVPSEDLTPDSQWDPMPGGPGSLSRMELDESSLQELVQQFEALPGDLVGPSPGGAPCPLHIATGHGLASQEIADAHGLLSAEAGRDDLLGLLHCEECPPSQTGPEEPLEPAPRLLQPPEDPDEDSDSPEWVEGASAEQEGSRSSSSSPEPWLETVPLVTPEEPPAGAQSPETLASYPAPQEVPGPCDHED
chain 2: MAATAAEAVASGSGEPREEAGALGPAWDESQLRSYSFPTRPIPRLSQSDPRAEELIENEEPVVLTDTNLVYPALKWDLEYLQENIGNGDFSVYSASTHKFLYYDEKKMANFQNFKPRSNREEMKFHEFVEKLQDIQQRGGEERLYLQQTLNDTVGRKIVMDFLGFNWNWINKQQGKRGWGQLTSNLLLIGMEGNVTPAHYDEQQNFFAQIKGYKRCILFPPDQFECLYPYPVHHPCDRQSQVDFDNPDYERFPNFQNVVGYETVVGPGDVLYIPMYWWHHIESLLNGGITITVNFWYKGAPTPKRIEYPLKAHQKVAIMRNIEKMLGEALGNPQEVGPLLNTMIKGRYN

Variants of: B1
Experiment: ITC
Settings: with Mint3NT, measured three times for each FIH-1 mutant

| screen value [kcal/mol] | Variant |
| --- | --- |
| 21.4 | chain 2 N171A |
| 19.5 | chain 2 E29A |
| 20.2 | chain 2 K75A |
| -28.4 | chain 2 D248A |
| -28.5 | chain 2 E79A |
| 20.1 | chain 2 E250A |
| -28.9 | chain 2 Y71A |

Reference: paper PMC8571082
